Paper PMC8508679

Target: Trop2 ectodomain (N120Q, N208Q) (human) (UniProt P09758)
Test: crystal structure; X-ray, 2.81 Å; sitting drop vapor diffusion, 1.6 M ammonium sulfate, 0.5 M NaCl, 13.3 mM EDTA, 0.1 M MES pH 5.8, protein at 10 mg/mL; crystal contacts analysed with PISA

stoichiometry N: 2
Substance: Trop2 ectodomain (N120Q, N208Q) (from UniProt P09758 27-274) (domain or fragment)
